According to PMC5337904, “A novel cytochrome P450, CYP3201B1, is involved in (R)‐mandelonitrile biosynthesis in a cyanogenic millipede” (FEBS Open Bio, 2017):
Where two headings read alike, the source gives them in different places.

What was measured:
Conditions in all cases: 50 nM enzyme, 2 mM NADPH, 50 mM potassium phosphate pH 6.5, 35 °C, 5 min, with yeast P450 reductase
CYP3201B1 = CYP3201B1 (Chamberlinius hualienensis, UniProt A0A1J1DVP9)
Cc1ccccc1CC#N = assay: cells, lysate or membranes
Cc1cccc(CC#N)c1 = assay: cells, lysate or membranes

CYP3201B1, sequence (A0A1J1DVP9 1-501 limits assumed): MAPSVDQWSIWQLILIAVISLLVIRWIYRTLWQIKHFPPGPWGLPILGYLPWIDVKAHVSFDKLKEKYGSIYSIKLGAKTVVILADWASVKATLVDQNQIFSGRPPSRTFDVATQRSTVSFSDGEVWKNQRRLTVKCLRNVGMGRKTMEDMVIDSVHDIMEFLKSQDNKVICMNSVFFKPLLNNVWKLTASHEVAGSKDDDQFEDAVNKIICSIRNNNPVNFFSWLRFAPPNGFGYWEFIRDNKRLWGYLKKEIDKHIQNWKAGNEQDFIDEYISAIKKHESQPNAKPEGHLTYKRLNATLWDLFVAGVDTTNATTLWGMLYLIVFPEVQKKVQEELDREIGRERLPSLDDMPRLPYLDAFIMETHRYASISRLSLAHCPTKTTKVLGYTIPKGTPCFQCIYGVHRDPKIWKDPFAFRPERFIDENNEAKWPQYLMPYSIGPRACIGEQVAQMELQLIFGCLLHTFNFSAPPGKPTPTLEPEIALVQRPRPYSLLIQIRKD

For N#CCc1ccc(O)cc1 [4‐HydroxyPAN], the Km (CYP3201B1) was 15.8 ± 1.2 µM.
Compound N#CCc1ccccc1 [PAN] has a Km (CYP3201B1; product (R)-mandelonitrile) of 9.2 ± 2.3 µM.
For CYP3201B1 (Chamberlinius hualienensis), the Km (Cc1ccccc1CC#N) was 6.6 ± 1.6 µM, the kcat (Cc1ccccc1CC#N) was 1.12 ± 0.07 s⁻¹ and the kcat/Km (Cc1ccccc1CC#N) was 170000 M⁻¹ s⁻¹. For the same compound, the Km (Cc1cccc(CC#N)c1) was 6.9 ± 1.3 µM, the kcat (Cc1cccc(CC#N)c1) was 1.09 ± 0.0433 s⁻¹ and the kcat/Km (Cc1cccc(CC#N)c1) was 158000 M⁻¹ s⁻¹.
